B1: C19orf51 (parent)
chain: FAPQTGARPSETFARFCKSQESAL
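Note: lentivirally expressed fusions sorted by FACS into six bins by GFP to DsRed ratio, PSI derived from sequencing read proportions per bin multiplied by bin number.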

Variants of: B1
Test: protein stability index of a GFP-peptide fusion (GPS, HEK-293T) (PSI 1-6); higher = more stable
Settings: c terminus: a fixed tail appended
Work on FAAQTGARPSETFARFCKSQESAL [P3A] yielded a protein stability index of 1.05.
Variant FAVQTGARPSETFARFCKSQESAL [P3V] has a protein stability index of 1.95.
FANQTGARPSETFARFCKSQESAL [P3N] gave a protein stability index of 1.96.
FAWQTGARPSETFARFCKSQESAL [P3W] gave a protein stability index of 2.66.
FACQTGARPSETFARFCKSQESAL [P3C] showed a protein stability index of 1.62.
Variant FALQTGARPSETFARFCKSQESAL [P3L] has a protein stability index of 1.5.
FAPQTGARPSETFARFCKSDESAL [Q20D] gave a protein stability index of 2.51.
With FAPQTGARPSETFARFCKSVESAL [Q20V] the protein stability index was 1.73.
Variant FAPQTGARPSETFARFCKSAESAL [Q20A] has a protein stability index of 2.13.
FAPQTGARPSETFARFCKSLESAL [Q20L] showed a protein stability index of 1.65.
With FAPQTGARPSETFARFCKSEESAL [Q20E] the protein stability index was 2.48.
FAPQTGARPSETFARFCKSHESAL [Q20H] gave a protein stability index of 1.89.
Variant FAPQTGARPSETFARFCKSRESAL [Q20R] has a protein stability index of 4.59.
FAPQTGARPSETFARFCKSNESAL [Q20N] showed a protein stability index of 1.76.
Work on FAPQTGARPSETFARFCQSQESAL [K18Q] yielded a protein stability index of 1.81.
FAPQTGARPSETFARFCNSQESAL [K18N] gave a protein stability index of 1.3.
Work on FAPQTGARPSETFARFCHSQESAL [K18H] yielded a protein stability index of 2.19.
FAPQTGARPSETFARFCSSQESAL [K18S] gave a protein stability index of 2.39.
FAPQTGARPSETFARFCPSQESAL [K18P] gave a protein stability index of 2.61.
Work on FAPQTGARPSETFARFCISQESAL [K18I] yielded a protein stability index of 2.29.
For FAPQTGARPSETFARFCESQESAL [K18E], the protein stability index was 1.92.
FAPQTGARPSETFARFCCSQESAL [K18C] gave a protein stability index of 2.44.
With FAPQTGARPSETFARFCDSQESAL [K18D] the protein stability index was 1.1.
For FAPQTGARPSETFARFCKSQISAL [E21I], the protein stability index was 1.97.
With FAPQTGARPSETFARFCKSQMSAL [E21M] the protein stability index was 2.35.
With FAPQTGARPSETFARFCKSQWSAL [E21W] the protein stability index was 3.29.
Variant FAPQTGARPSETFARFCKSQASAL [E21A] has a protein stability index of 2.86.
In the case of FAPQTGARPSETFARFCKSQRSAL [E21R], the protein stability index is reported as 4.11.
FAPQTGARPSETFARFCKSQQSAL [E21Q] gave a protein stability index of 2.79.
In the case of FAPQTGARPSETFARFCKSQFSAL [E21F], the protein stability index is reported as 1.76.
In the case of FAPQTGARPSETFARFCKSQPSAL [E21P], the protein stability index is reported as 1.88.
FAPQTGARPSETFARFCKAQESAL [S19A] showed a protein stability index of 2.85.
FAPQTGARPSETFARFCKTQESAL [S19T] showed a protein stability index of 1.66.
FAPQTGARPSETFARFCKDQESAL [S19D] gave a protein stability index of 2.2.
For FAPQTGARPSETFARFCKGQESAL [S19G], the protein stability index was 2.82.
With FAPQTGARPSETFARFCKRQESAL [S19R] the protein stability index was 5.04.
FAPQTGARPSETFARFCKEQESAL [S19E] gave a protein stability index of 1.1.
For FAPNTGARPSETFARFCKSQESAL [Q4N], the protein stability index was 1.69.
Work on FAPYTGARPSETFARFCKSQESAL [Q4Y] yielded a protein stability index of 2.21.
In the case of FAPKTGARPSETFARFCKSQESAL [Q4K], the protein stability index is reported as 1.99.
For FAPMTGARPSETFARFCKSQESAL [Q4M], the protein stability index was 1.65.
In the case of FAPFTGARPSETFARFCKSQESAL [Q4F], the protein stability index is reported as 1.98.
Variant FAPSTGARPSETFARFCKSQESAL [Q4S] has a protein stability index of 2.6.
FAPCTGARPSETFARFCKSQESAL [Q4C] gave a protein stability index of 2.85.
Work on FAPQGGARPSETFARFCKSQESAL [T5G] yielded a protein stability index of 3.11.
Work on FAPQQGARPSETFARFCKSQESAL [T5Q] yielded a protein stability index of 2.47.
FAPQAGARPSETFARFCKSQESAL [T5A] showed a protein stability index of 2.07.
FAPQYGARPSETFARFCKSQESAL [T5Y] showed a protein stability index of 2.78.
In the case of FAPQEGARPSETFARFCKSQESAL [T5E], the protein stability index is reported as 2.42.
FAPQDGARPSETFARFCKSQESAL [T5D] gave a protein stability index of 2.37.
With FAPQTGERPSETFARFCKSQESAL [A7E] the protein stability index was 1.77.
Work on FAPQTGQRPSETFARFCKSQESAL [A7Q] yielded a protein stability index of 1.31.
FAPQTGDRPSETFARFCKSQESAL [A7D] showed a protein stability index of 1.59.
For FAPQTGKRPSETFARFCKSQESAL [A7K], the protein stability index was 1.53.
FAPQTGLRPSETFARFCKSQESAL [A7L] showed a protein stability index of 2.
Work on FAPQTGPRPSETFARFCKSQESAL [A7P] yielded a protein stability index of 2.07.
With FAPQTGTRPSETFARFCKSQESAL [A7T] the protein stability index was 2.69.
For FAPQTGFRPSETFARFCKSQESAL [A7F], the protein stability index was 2.41.
FAPQTGMRPSETFARFCKSQESAL [A7M] showed a protein stability index of 1.77.
In the case of FAPQTGARPSETFARICKSQESAL [F16I], the protein stability index is reported as 1.89.
With FAPQTGARPSETFARDCKSQESAL [F16D] the protein stability index was 1.77.
In the case of FAPQTGARPSETFARGCKSQESAL [F16G], the protein stability index is reported as 2.38.
Variant FAPQTGARPSETFARCCKSQESAL [F16C] has a protein stability index of 2.62.
FAPQTGARPSETFARRCKSQESAL [F16R] showed a protein stability index of 1.4.
Variant FAPQTGARPSETFARLCKSQESAL [F16L] has a protein stability index of 3.42.
Work on FAPQTGARPSRTFARFCKSQESAL [E11R] yielded a protein stability index of 2.15.
FAPQTGARPSGTFARFCKSQESAL [E11G] showed a protein stability index of 1.54.
FAPQTGARPSATFARFCKSQESAL [E11A] showed a protein stability index of 1.55.
Work on FAPQTGARPSHTFARFCKSQESAL [E11H] yielded a protein stability index of 2.47.
FAPQTGARPSSTFARFCKSQESAL [E11S] showed a protein stability index of 3.19.
FAPQTGARPSITFARFCKSQESAL [E11I] gave a protein stability index of 1.72.
Variant FAPQTGARPSLTFARFCKSQESAL [E11L] has a protein stability index of 2.27.
With FAPQTGARPSMTFARFCKSQESAL [E11M] the protein stability index was 3.05.
Variant PAPQTGARPSETFARFCKSQESAL [F1P] has a protein stability index of 3.71.
For TAPQTGARPSETFARFCKSQESAL [F1T], the protein stability index was 2.49.
Variant EAPQTGARPSETFARFCKSQESAL [F1E] has a protein stability index of 4.14.
With QAPQTGARPSETFARFCKSQESAL [F1Q] the protein stability index was 3.77.
In the case of NAPQTGARPSETFARFCKSQESAL [F1N], the protein stability index is reported as 3.87.
For DAPQTGARPSETFARFCKSQESAL [F1D], the protein stability index was 4.78.
Work on FAPQTGARPSETFARFCKSQESFL [A23F] yielded a protein stability index of 2.44.
Variant FAPQTGARPSETFARFCKSQESWL [A23W] has a protein stability index of 2.29.
FAPQTGARPSETFARFCKSQESTL [A23T] gave a protein stability index of 2.07.
Work on FAPQTGARPSETFARFCKSQESKL [A23K] yielded a protein stability index of 1.75.
For FAPQTGARPSETFARFCKSQESML [A23M], the protein stability index was 2.11.
FAPQTGARPSETFARFCKSQESRL [A23R] showed a protein stability index of 3.52.
In the case of FAPQTGARPSETFARFCKSQESGL [A23G], the protein stability index is reported as 2.32.
FAPQTGARPSETFARFCKSQESCL [A23C] showed a protein stability index of 1.55.
Work on FAPQTGARPSETFARFCKSQESLL [A23L] yielded a protein stability index of 2.84.
FAPQTGARPSETFARFCKSQESHL [A23H] gave a protein stability index of 3.08.
With FGPQTGARPSETFARFCKSQESAL [A2G] the protein stability index was 2.95.
FPPQTGARPSETFARFCKSQESAL [A2P] gave a protein stability index of 2.16.
Work on FTPQTGARPSETFARFCKSQESAL [A2T] yielded a protein stability index of 1.61.
For FFPQTGARPSETFARFCKSQESAL [A2F], the protein stability index was 1.88.
For FDPQTGARPSETFARFCKSQESAL [A2D], the protein stability index was 3.07.
